Assays:
solid tumors = details: cited from earlier work
[1] = system: chicken chorioallantoic membrane; details: CAM assay; cited from earlier work
rat aortic rings = details: in vitro; cited from earlier work
[2] = system: human umbilical vein endothelial cells (HUVECs); details: in vitro; cited from earlier work
fibronectin [3] = target: T1, fibronectin (Homo sapiens, UniProt P02751); experiment: Biacore (SPR) equilibrium binding constants to fibronectin; details: fibronectin 0.78 nM-100 nM over immobilized protein; values only in FIG. 1C
Description: Fibronectin samples were prepared by serial dilution into 0.01 M Hepes, pH 7.4, 0.15 M NaCl, 0.05% Surfactant containing 1 mg/ml BSA in the range 0.78 nM-100 nM and flowed over control and derivatized surfaces for three minutes at a flow-rate of 60 μl/min. Dissociation phases were monitored for 5 minutes. Zero concentration blank buffer cycles were included as negative control samples. Sensor surfaces were regenerated using a 1 minute injection of 1 M ethanolamine, pH 8.5 following each interaction analysis cycle. Non-specific binding effects to sensor surface CM4 were not observed. Calculated ka, kd and KD are shown. Different curves correspond to different concentrations of fibronectin.
1.3 Surface Plasmon Resonance (SPR) binding assays. This analysis provides for a unique method for measuring equilibrium constants between two binding partners. It is able to evaluate the kinetics of an interaction by recording the rates of complex formation (ka) and dissociation (kd) followed by employing a software which determines the values of these two parameters. Equilibrium constant (KD) is obtained by calculating the ration of kd/ka Human VEGF (R&D), endostatin, endostatin dimer and human NC-1 (hNC-1) were diluted to 50 μg/ml in 10 mM Sodium Acetate, pH 5.5 and immobilized onto series S sensor chip(s) CM4 via a standard N-ethyl-N′-(dimethyl-aminopropyl)carbodiimide/N-hydroxysuccinimide (EDC/NHS) amine coupling procedures. Control surfaces were prepared similarly without protein derivatization and utilized as a reference surface for compound binding experiments.
Binding measurements were performed using a Biacore™ (GE Healthcare, Uppsala, Sweden) instrument which employs surface plasmon resonance to detect and monitor molecular interactions.
Data analysis was carried out using Biacore T100 evaluation software v1.1.1. Data were prepared by subtraction of reference surface data and blank buffer sample data, a procedure commonly referred to as ‘double referencing’ and fitted to a 1:1 langmuir binding model.
In order to measure equilibrium binding constants for the above proteins, a Biacore system was employed. […] Fc-endostatin imposes a dimeric structure on the two molecules of endostatin at the C-terminus of Fc dimer.

[4] = system: human melanoma cancer cells (A2058); experiment: A2058 human melanoma tumors in nude mice; assay type: in vivo
Description: 4-6 tumor-bearing nude mice in each group were subcutaneously (s.c.) treated with hNC-1 (100 μg/mouse once a day), clinical-grade endostatin (100 and 500 μg/mouse once a day) or PBS. Treatment was stopped prior to the development of necrosis. Sites of injection were away from tumors. Tumor sizes and the ratio of treated/control (T/C) is shown.
1.4 Animal and tumor models. All animal procedures were carried out in compliance with Children's Hospital Boston guidelines Protocols were approved by the Institutional Animal Care and Use Committee. Eight-week-old male (24-27 g) nude/nude mice (Massachusetts General Hospital, Boston, MA) were used. Mice were acclimated, caged in groups of five in a barrier care facility, and fed animal chow and water ad libitum. Animals were euthanized by CO2 inhalation. Human melanoma cell line A2058 was used for animal studies. A suspension of 2×10^6 tumor cells in 0.1 ml of PBS was injected subcutaneously (s.c.) into the dorsa of mice at the proximal midline. Mice were weighed and tumors were monitored twice a week in two diameters with digital calipers. Tumor volumes were determined using a^2×b×0.52 (where a is the shortest and b is the longest diameter). Tumors were allowed to grow to ˜100 mm^3 and mice were randomized. Treatment was by bolus s.c. injections. After experiments were completed, tumors and organs were excised and fixed in either 4% paraformaldehyde or were snap frozen. Four to six mice were treated with each group.
2.6 hNC-1 suppresses tumor growth in vivo. In order to compare anti-tumor activities of NC-1 and endostatin, nude mice bearing human melanoma cell line A2058 were employed. Two doses of clinical grade endostatin differing by 5-fold in concentration of protein (low and high doses) were used. […] It cannot be ruled out the possibility that injected NC-1 becomes degraded upon entering the circulation.

HUVECs [5] = experiment: Endothelial cell migration assay (transwell, VEGF-induced); assay type: cell-based, human
Description: HUVECs were plated into 24-well inserts of transwell plate in duplication. The lower chamber was filled with serum free medium containing 100 ng/ml […] VEGF (rhVEGF) plus different concentrations of hNC-1. After incubation for 16 h at 37° C., the cells were fixed and stained. […] Endostatin monomer, dimer and NC-1 were used for comparison (c).
1.7 Endothelial cell migration assay. HUVECs were washed by serum free EBM medium twice, re-suspended at 5×10^4 cells/well in 0.6 ml of medium, were plated into 24-well inserts (Coring, 8 μm pore size) in duplicates. The lower chamber was filled with 0.6 ml of serum free EBM medium containing 100 ng/ml […] (rh)VEGF (R&D) After incubation for 16 h at 37° C., the cells were fixed by methanol and stained with eosin and hemotoxlin. Cells on the upper side of the transwell membrane were removed by cotton swab. Cells migrating to the lower side of membrane were counted.
2.4 hNC-1 inhibits endothelial cells migration. Endothelial cell migration is an important step in new blood vessel formation and tumor angiogenesis. To evaluate the effect of hNC-1 on endothelial cell migration, rhVEGF has been used to induce HUVECs migration in a transwell assay. The migration of cells has been monitored and quantified Cells migrating across the membrane were stained with blue-purple stain (FIG. 3B(a)) and counted.

[6] = Stability in serum or cell culture media; assay type: in vitro ADME; details: longer periods of time, even at 4° C.
From the text: The invention also relates to a method for producing the protein oligomer or peptide oligomer or fusion protein of the invention, comprising (a) culturing a host cell comprising a nucleic acid encoding the protein oligomer or peptide oligomer or fusion protein of the invention, preferably under serum-free conditions, (b) obtaining from the host cell of step (a) the protein oligomer or peptide oligomer or fusion protein, and, optionally, (c) storing the protein oligomer or peptide oligomer or fusion protein, preferably under serum-free conditions. […] Therefore, it is advantageous to produce and keep the protein oligomer or peptide oligomer of the invention under serum-free conditions.
The earliest condition media employed for endostatin isolation was continuously kept at 4° C. for a long period of time (at least a month) prior to final purification step. Presence of fetal calf serum in the media can cause degradation of NC-1. Confirmation of this hypothesis was established by another group in the inventor's laboratory a year later, employing the same mouse tumor cell line (Wen et al., loc. cit.). […] Consequently, the earlier observation of an endostatin size protein being the only product following HPLC purification, strongly supports the inventor's hypothesis that NC-1 was completely digested to an endostatin size molecule after prolonged incubation at 4° C. […]

fibronectin [7] = target: T1, fibronectin; experiment: Elisa, binding to fibronectin; details: proteins coated at 10 μg/ml; fibronectin as ligand at the same concentration
Description: Coating of proteins were done in PBS at concentration of 10 μg/ml. Fibronectin served as a ligand at the same concentration. All buffers contained 2% BSA, 0.1% Tween-20.
Three protein constructs human Fc (control), dimeric human (h)Fc-Endostatin and hFc-VEGF were employed. […] Artificial endostatin dimer was generated by introducing a single mutation in amino acid position 7 of endostatin (changing glutamine to cysteine) in the recombinant Fc-endostatin. Upon digestion of this mutant protein by enterokinase, endostatin dimer is produced, linked by a disulfide bond (Kuo et al., loc. cit.).

HUVECs [8] = experiment: Immunofluorescence, endothelial cell surface binding; assay type: cell-based, human
Description: HUVECs were incubated with Fc-endostatin and detected with Alexa 488 IgG or human NC-1 (hNC-1) trimer and detected by anti-His tag monoclonal antibody.
1.5 Immunocytochemistry. HUVECs were plated and grown on cover slips. […] The slips were incubated in the blocking buffer (2% BSA PBS) for 30 min. For hFc-endostatin or hFc groups, the slides were incubated with Alexa 488 antihuman IgG for imaging. For hNC-1 or IgG groups, the slides were incubated with mouse anti-His-tag monoclonal antibody, then probed by Alexa 488 anti-mouse IgG. Anti-fibronectin antibody (R&D) was used for secondary staining for all slides and probed by Alexa 594 anti-goat IgG and imaged by confocal-microscopy. DAPI counterstaining of nuclei is shown in blue.
2.3 Binding of oligomeric hFc-endostatin and hNC-1 to HUVECs. Immunoflourescence technique was employed to detect endothelial cell surface binding of oligomeric endostatin and NC-1.

T1 sequence (P02751 32-2477): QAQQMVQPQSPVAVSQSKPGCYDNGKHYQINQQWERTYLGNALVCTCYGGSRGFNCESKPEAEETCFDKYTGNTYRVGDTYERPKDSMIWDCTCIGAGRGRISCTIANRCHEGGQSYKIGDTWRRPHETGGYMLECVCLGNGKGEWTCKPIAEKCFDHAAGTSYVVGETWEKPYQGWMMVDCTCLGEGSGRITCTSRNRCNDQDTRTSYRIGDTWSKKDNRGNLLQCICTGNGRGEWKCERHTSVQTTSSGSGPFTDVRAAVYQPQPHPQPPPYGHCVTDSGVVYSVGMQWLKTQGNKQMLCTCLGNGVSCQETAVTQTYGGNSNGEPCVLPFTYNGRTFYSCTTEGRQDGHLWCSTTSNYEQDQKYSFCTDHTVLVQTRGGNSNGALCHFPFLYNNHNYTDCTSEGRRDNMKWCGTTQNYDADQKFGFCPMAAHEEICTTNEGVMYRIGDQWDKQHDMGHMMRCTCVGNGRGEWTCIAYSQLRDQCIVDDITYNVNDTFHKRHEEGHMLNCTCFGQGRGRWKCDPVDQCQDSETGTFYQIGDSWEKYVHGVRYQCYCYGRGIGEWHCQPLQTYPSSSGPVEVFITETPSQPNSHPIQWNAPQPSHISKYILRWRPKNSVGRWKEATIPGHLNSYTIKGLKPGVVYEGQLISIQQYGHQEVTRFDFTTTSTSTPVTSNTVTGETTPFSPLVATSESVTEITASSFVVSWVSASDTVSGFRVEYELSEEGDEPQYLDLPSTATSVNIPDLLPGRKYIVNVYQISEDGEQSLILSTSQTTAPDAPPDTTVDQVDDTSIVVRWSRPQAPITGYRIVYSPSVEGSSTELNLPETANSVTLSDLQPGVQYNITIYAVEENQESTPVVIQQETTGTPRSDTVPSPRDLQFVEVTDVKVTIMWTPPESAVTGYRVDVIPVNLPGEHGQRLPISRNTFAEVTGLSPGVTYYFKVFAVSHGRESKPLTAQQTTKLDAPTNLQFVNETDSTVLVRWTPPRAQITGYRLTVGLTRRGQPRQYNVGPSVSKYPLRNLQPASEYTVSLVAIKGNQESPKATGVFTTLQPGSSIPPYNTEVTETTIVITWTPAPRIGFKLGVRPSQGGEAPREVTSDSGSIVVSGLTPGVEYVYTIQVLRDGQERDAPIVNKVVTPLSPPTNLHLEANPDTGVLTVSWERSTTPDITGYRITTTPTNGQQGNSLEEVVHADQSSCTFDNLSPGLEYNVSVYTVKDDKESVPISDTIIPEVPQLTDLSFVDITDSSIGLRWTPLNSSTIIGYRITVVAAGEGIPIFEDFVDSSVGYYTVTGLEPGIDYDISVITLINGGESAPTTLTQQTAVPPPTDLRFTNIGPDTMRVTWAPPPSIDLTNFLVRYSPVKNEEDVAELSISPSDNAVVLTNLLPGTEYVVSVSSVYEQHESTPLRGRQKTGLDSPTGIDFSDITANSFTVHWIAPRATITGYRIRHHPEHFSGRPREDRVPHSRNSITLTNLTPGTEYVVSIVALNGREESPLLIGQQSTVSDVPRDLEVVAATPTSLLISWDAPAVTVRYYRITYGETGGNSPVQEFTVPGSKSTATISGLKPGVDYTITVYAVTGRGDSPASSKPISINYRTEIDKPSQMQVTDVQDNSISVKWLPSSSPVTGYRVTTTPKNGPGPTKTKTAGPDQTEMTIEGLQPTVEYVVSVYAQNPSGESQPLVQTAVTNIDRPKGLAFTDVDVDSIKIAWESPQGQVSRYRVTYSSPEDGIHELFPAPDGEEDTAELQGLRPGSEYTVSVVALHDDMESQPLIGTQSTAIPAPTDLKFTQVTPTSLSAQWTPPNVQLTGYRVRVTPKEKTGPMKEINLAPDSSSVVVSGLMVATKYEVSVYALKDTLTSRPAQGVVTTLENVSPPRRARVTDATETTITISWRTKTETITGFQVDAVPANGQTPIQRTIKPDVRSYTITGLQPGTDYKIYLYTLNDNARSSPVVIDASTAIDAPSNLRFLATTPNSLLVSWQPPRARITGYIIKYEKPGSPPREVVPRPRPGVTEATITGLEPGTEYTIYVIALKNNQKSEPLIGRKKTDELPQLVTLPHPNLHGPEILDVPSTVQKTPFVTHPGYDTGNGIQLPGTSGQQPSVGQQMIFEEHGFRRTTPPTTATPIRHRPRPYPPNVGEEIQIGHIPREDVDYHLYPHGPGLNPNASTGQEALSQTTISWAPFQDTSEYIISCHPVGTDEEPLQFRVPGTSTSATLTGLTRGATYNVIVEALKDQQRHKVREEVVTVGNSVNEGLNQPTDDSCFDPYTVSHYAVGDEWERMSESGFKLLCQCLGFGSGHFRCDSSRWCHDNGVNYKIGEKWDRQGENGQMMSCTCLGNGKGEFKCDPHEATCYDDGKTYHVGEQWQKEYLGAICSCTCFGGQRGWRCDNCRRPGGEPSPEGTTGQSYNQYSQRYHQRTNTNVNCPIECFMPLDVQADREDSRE

B1: Endostar: recombinant human endostatin from Escherichia coli with an additional nine-amino acid sequence forming a his-tag (protein, UniProt P39060 1572-1754, looked up)
Endostatin: HSHRDFQPVLHLVALNSPLSGGMRGIRGADFQCFQQARAVGLAGTFRAFLSSRLQDLYSIVRRADRAAVPIVNLKDELLFPSWEALFSGSEGPLKPGARIFSFDGKDVLRHPTWPQKSVWHGSDPNGRRLTESYCETWRTEAPSATGQASSLLGGRLLGQSAASCHHAYIVLCIENSFMTASK
modifications: Endostatin nine-residue his-tag
Solid tumors; 7.5 mg/m^2/day i.v. more than 7 days, with chemotherapy
  Median time to tumor progression: 3.0 months
Solid tumors; human, in vivo
  toxicity combined with chemotherapy: tolerable
  treatment related death: No treatment related death
Solid tumors; of 42 patients
  patients remaining stable: twenty-one
  patients with progressive disease: nineteen
Solid tumors; with chemotherapy
  Median overall survival: 30.0 months
  complete response: No complete response
  one year survival rate: 81.0%
  patients with partial response: Two of 42
[1]
  formation of new capillaries from pre-existing vessels: inhibit the formation of new capillaries
Rat aortic rings
  microvessel sprouting from rat aortic rings: blocked microvessel sprouting
[2]
  VEGF-stimulated proliferation, migration, and tube formation of HUVECs: suppressed

B2: hNC-1: naturally occurring trimeric NC-1 domain of human collagen 18: association domain, hinge region and endostatin domain (protein)
chain: SGVRLWATRQAMLGQVHEVPEGWLIFVAEQEELYVRVQNGFRKVQLEARTPLPRGTDNEVAALQPPVVQLHDSNPYPRREHPHPTARPWRADDILASPPRLPEPQPYPGAPHHSSYVHLRPARPTSPPAHSHRDFQPVLHLVALNSPLSGGMRGIRGADFQCFQQARAVGLAGTFRAFLSSRLQDLYSIVRRADRAAVPIVNLKDELLFPSWEALFSGSEGPLKPGARIFSFDGKDVLRHPTWPQKSVWHGSDPNGRRLTESYCETWRTEAPSATGQASSLLGGRLLGQSAASCHHAYIVLCIENSFMTASK
modifications: left off: small tags and cut ends
notes: naturally occurring trimeric NC-1 domain of human collagen 18: association domain, hinge region and endostatin domain
Fibronectin [3]
  equilibrium binding constant to fibronectin (Biacore): High affinity constants
[4]; end of experiment, s.c. once a day, hNC-1 100 μg/mouse, endostatin 100 and 500 μg/mouse
  inhibition of tumor growth: 67%
[4]; low dose of NC-1 vs 5-fold higher dose of endostatin
  anti-tumor activity compared with endostatin: anti-tumor activity similar to high dose of endostatin
HUVECs [5]
  anti-migratory potency among endostatin monomer, dimer and NC-1: most potent anti-migratory agent
HUVECs [5]; 100 ng/ml rhVEGF, 16 h
  VEGF-induced endothelial cell migration: inhibited VEGF-induced endothelial cell migration
HUVECs [5]; 100 and 200 ng/ml of hNC-1
  endothelial cell migration: less migration
HUVECs [5]; different concentrations of hNC-1
  dose effect on endothelial cell migration: U-shaped curve
[6]
  stability in serum or cell culture media: susceptible to degradation
Fibronectin [7]
  binding to fibronectin (Elisa): bound fibronectin
HUVECs [8]; cells cultured only for 24 hours
  binding to HUVECs: poor binding
HUVECs [8]; incubation time prolonged to 72 hours
  binding to HUVECs: significant binding

Source: US12571800B2, “Means and methods for treating angiogenesis-related diseases” (Heidelberg Biotech GmbH, priority 2011, dated 2026)
